Source: article PMC9207808 (ACS Chemical Biology, 2022)
“And” between values parts separate entries of the source, which are not always exact repeats. Equal values may be shown once. Read-outs that look alike come from different tables or passages of the source. No end group written: not given here.

Tests used:
[1] = target: Doc1-122–His6 (DocSTm toxin) (Salmonella typhimurium); assay: SPR; Biacore S200; Doc-His6 captured on a Series S NTA chip (200-400 RU); peptide as analyte, single-cycle kinetics, six concentrations (3-fold dilutions), 30 uL/min; 22 C; 10 mM HEPES, 500 mM NaCl, 50 uM EDTA, 0.005% TWEEN 20, pH 8.0; kinetic 1:1 fit
[2] = target: Doc1-122–His6 (DocSTm toxin) (Salmonella typhimurium); assay: as above; remark: listed apart in the source
[3] = target: Doc toxin of Salmonella enterica serovar Typhimurium (DocSTm) (Salmonella enterica serovar Typhimurium); assay: SPR; DocSTm immobilised on a Series S NTA chip (150 nM, 200-400 RU); analytes in single-cycle kinetics, typically six concentrations, kinetic 1:1 fit; 22 °C; 10 mM HEPES, 500 mM NaCl, 50 μM EDTA, 0.005% TWEEN 20, pH 8.0

Binder | koff [1] [s⁻¹] | kon [1] [M⁻¹ s⁻¹] | Kd [2] | koff [2] | kon [2] | Kd [3] [nM] | fold improvement of koff against peptide 1 [3] [fold] | fold improvement of kon against peptide 1 [3] [fold] | Kd [1] [nM]
Ac-FAAIMAVHGNELREL-OH [peptide 23 (PhdSTm56-70)] | 0.00279 | 1.41e+06 | 1.85 nM and 1.94 nM and 2.18 nM | 0.00284 s⁻¹ and 0.00279 s⁻¹ and 0.00276 s⁻¹ | 1.53e+06 M⁻¹ s⁻¹ and 1.44e+06 M⁻¹ s⁻¹ and 1.26e+06 M⁻¹ s⁻¹ | – | – | – | –
Ac-WMDAEFAAIMAVHGNELRELADK [peptide 4 (Phd 52-73 D54A)] | – | – | – | – | – | 0.013 | 1.5 | 4 | –
Ac-WMDDEAAAIMAVHGNELRELADK [peptide 6 (Phd 52-73 F56A)] | – | – | – | – | – | 0.852 | – | – | –
Ac-EFAAIMAVHGNELRELADK-OH [peptide 21 (PhdSTm55-73)] | 0.000496 | 1.25e+06 | 0.41 nM and 0.412 nM and 0.365 nM | 0.000551 s⁻¹ and 0.000501 s⁻¹ and 0.000436 s⁻¹ | 1.3e+06 1/(M s) and 1.2e+06 1/(M s) (2×) | – | – | – | 0.396
Ac-EFAAIMAVHGNELRELA-OH [peptide 22 (PhdSTm55-71)] | 0.000503 | 1.45e+06 | 0.342 nM and 0.336 nM and 0.365 nM | 0.000521 s⁻¹ and 0.000492 s⁻¹ and 0.000495 s⁻¹ | 1.5e+06 1/(M s) (2×) and 1.4e+06 1/(M s) | – | – | – | –
Ac-WMDDEFAAIMAVHGNELREAADK [peptide 17 (Phd 52-73 L70A)] | – | – | – | – | – | 1.55 | – | – | –
